# Experimental data taken from article PMC5718816.
# Target: IgG-CD4 fusion protein (human) (UniProt P01730)
# Assay: BLI
row,Substance,Kd
1,recombinant consensus gp120 of HIV-1 CRF01_AE,18.4 nM
2,recombinant gp120 of HIV-1 92UG037.8 (subtype A) (natural protein),2.56 nM
3,recombinant gp120 of HIV-1 93MW965.26 (subtype C) (natural protein),112 nM
4,recombinant gp120 of HIV-1 JR-FL (subtype B) (natural protein),6.4 nM
